The values that follow are results of earlier work, collected in publication PMC9539805.

As a reminder, the Kd is the constant that tells how readily two partners part at equilibrium.

In data set [1] the target is spike protein RBD (SARS-CoV-2) (UniProt P0DTC2).
Data set [2] concerns the target spike protein (SARS-CoV-2) (UniProt P0DTC2).

Consider CV-N (from UniProt P81180), for which the Kd in data set [1] is 260 µM; in data set [2] it was 18.6 µM.
